Consider two substances from publication doi:10.1101/557611.

Assay [1] concerns the target microtubules (without MAP7). Nature of the assay: single-molecule TIRF microscopy.
In assay [2] the target is microtubules (without MAP7). Kind of assay: optical trapping.
Assay [3] concerns the target MAP7-decorated microtubules (mammalian MAP7) (UniProt O88735). Nature of the assay: optical trapping.

As for “MAP7 (ensconsin, E-MAP-115), mammalian, with N-terminal FLAG and SNAP-tags (from UniProt O88735 1-730) (natural protein)”, the mean dwell time in assay [1] was 114 s.
With “dynein on isolated phagosomes (teams of dynein motors) (complex)”, in assay [2], the unbinding rate at zero load is 0.0237 s⁻¹. In assay [3], this substance registered an increase of the relative binding rate against microtubules without MAP7 of 10% and an unbinding rate at zero load of 0.0207 s⁻¹.
